Test results published in the supplement of paper PMC12764529.
± gives the half width of the 95% confidence interval.

How the values were obtained:
[1] = folding stability dG unfold (combined trypsin and chymotrypsin); higher = more stable
Outline: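 K50 was inferred by Bayesian fitting of sequencing counts obtained after protease digestion of designed mini-proteins. Unfolding free energy was derived by comparison with a sequence-predicted unfolded-state K50 and a shared folded-state K50, for each protease or both combined. The mini-proteins were under 80 residues, had no cysteine, were carried in a PA-tagged cDNA display construct, and were kept only if AlphaFold2 dimer inter-PAE exceeded 15.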

[2] = folding stability dG unfold from chymotrypsin proteolysis; higher = more stable
Procedure: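 Folding stability of de novo designed mini-proteins (<80 aa, no Cys; designed by TrROS, TrMRF, ProteinMPNN and the joint model) was measured by cDNA display proteolysis with trypsin and chymotrypsin. Each protease was used at 11 concentrations in a threefold dilution series plus a no-protease condition. K50 was inferred by Bayesian fitting of sequencing counts, and dG unfold was derived against a sequence-predicted unfolded-state K50 (Tsuboyama et al. method). Sequences shown include variable-length N-terminal GS-type padding (SAGGSAGG...) inside a display construct carrying a PA tag. Rows were kept only if the AF2 dimer inter-PAE was >15, to exclude likely homo-oligomers.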

| Sequence | folding stability dG unfold [1] [kcal/mol] | folding stability dG unfold [2] [kcal/mol] |
| --- | --- | --- |
| SAGGKITIEKKEDGTYTITINGKKFTFKFKPGAKVEIKIEKKKDGTYTITITVTNKDGSKKTFKIKLSAGGS [r16_231_TrROS_Hall] | 4.87 ± 0.47 | 4.85 ± 0.26 |
| SAGGSAGGSAGMEPLKEIEVPFPGGWSIEIEVYPNGIKIEPNPNFDNPQMKKRILDALNPSAGGSAGGSAGG [r11_372_TrROS] | -0.445 ± 0.42 | -0.0677 ± 0.26 |
| SAGGSAGGSAGGMSAEEVREIVEELGFDDPTEVVVLDLPDGRRVLVTNPPDGLRLEVLDSAGGSAGGSAGGS [r10_604_TrMRF] | 0.562 ± 0.12 | 0.967 ± 0.053 |
| SAGGSAGGSMTTLRTRLKGDGTVEIEVYEPGRIRTITLPPSEVDKIPDVEDLPRYELEGDAPESAGGSAGGS [r12_343_JUSTAS] | -0.514 ± 0.22 | 0.147 ± 0.21 |
| SAGGSAGGSAGGSSVSVSFDPATGTRTVTYTTLDPSNGKILSSTTSTTAVALAATPAAASAGGSAGGSAGGS [r10_842_JUSTAS] | -0.288 ± 0.17 | 0.661 ± 0.058 |
| SAGGSAGGSALRPDEPFLVRVRIVDPRPGEGPPVERELVLPLEAILRLIPPGAGADVELLPSAGGSAGGSAG [r3_223_TrMRF] | < -1 | -0.747 ± 0.94 |
| SAGGSAGGSAGGSKIIRIKAKPNEKKEIKIDGKWYKLYADKDNPDRVYIERPDGTIDPASAGGSAGGSAGGS [r4_488_TrMRF] | 0.26 ± 0.13 | 0.685 ± 0.14 |
| SKKRILIVTDEKDLSPEEAAKLLEELGIEEVKVVKSAEELKNLPPEVDEVIVVTPPPPVKVEFSPEELEKSA [r9_750_TrROS_Hall] | -0.626 ± 0.43 | -0.309 ± 0.069 |
| SAGGMVLEKKSPSGTTTKTVVEETPDELYVKTTTLKGKTPTTSESVIPAPPPPPLPFPSGRPEELQLLSAGG [r13_691_JUSTAS] | < -1 | -0.632 ± 0.45 |
| SAGGSAGGSAGGMDEPVSLPVRKPILSPGSPEEAEARAAELKAPGVEVDAVPRDAAGRLESAGGSAGGSAGG [r11_703_JUSTAS] | 0.126 ± 0.13 | 0.764 ± 0.037 |
| MTEKEIKEKAEEIAKKIAEEKGTEIKSAKIGGYVNVPVKVKEKLDENGKPVFEFEGKKVKVKVEVELKKKKS [r1_91_TrMRF] | < -1 | 0.567 ± 0.33 |
| SAGGLSVSSVSTGSDKITVTVTGSGSPVATVEIPPGLPNTEVTATVLPDGSVRVELKTGNTPRTIEVPLSAG [r5_533_JUSTAS] | -0.783 ± 0.28 | -0.445 ± 0.14 |
| MKITVTITSLGDKYTMTAEIELPDGTVETITKEFDSPEEAKKYIEKLVKELPPGLVEIEEIKFNPPDGTADS [r1_169_JUSTAS] | > 6 | 4.94 ± 0.6 |
| SAGSMTSFPLTLPGGEKISSISVTASPGTEYTTNATLSKDKSKTVTINFDIKPGGEKVVKNISVTTPEESAG [r14_705_JUSTAS] | -0.0181 ± 0.1 | 0.391 ± 0.2 |
| SAGGMKVTPLGTEPRPDGTTTTTYLSTLPNGTPVTTTTTTSTIPPPPVPPFSPEEVAAAAARRAAAASAGGS [r16_8_JUSTAS] | < -1 | 0.249 ± 0.21 |
| SAGGSAGGSAGGTTLLFPDKIIRTLPLPPGAVFDVPPGLTLEGVEEDPSTGTLTVTVKGLSAGGSAGGSAGG [r11_942_JUSTAS] | -0.211 ± 0.24 | 0.0814 ± 0.14 |
| SADPADVDVPLPVVGTAPALTSAPPGARLELVRLPDLGALARVDDGSVVALTVVVNDDGEVLAVAVEPAPSA [r9_1195_TrMRF] | 0.252 ± 0.066 | 0.894 ± 0.028 |
| SAGGSAGGSAGMVIELPVPGTMSPEEARARAEEVAEELARRTGRPVEVREVRLVTPEELASAGGSAGGSAGG [r17_68_JUSTAS] | -0.733 ± 0.4 | -0.364 ± 0.086 |

| Sequence | folding stability dG unfold [1] [kcal/mol] | folding stability dG unfold [2] [kcal/mol] |
| --- | --- | --- |
| SAGGSAGGSADEFVVVADLPEGGEARLLVLPLPDGSYLVAEAEAERHGDRTVLHVKVTPAESAGGSAGGSAG [r3_281_TrMRF] | -0.0917 ± 0.14 | 0.595 ± 0.11 |
| SAGGSAGGSAGGPALAEELARKLPPGARVRVRVERDADGNLTITVEVEPAPPVEVVEEESAGGSAGGSAGGS [r10_385_TrROS_Hall] | -0.06 ± 0.23 | 0.366 ± 0.044 |
| SAGSHEAWFPIPELLNDPGLEDAWIRVTVHPTPNGNIDIDIEPEPVPKPKITPEEMQEQMEENNKQMKSAGG [r19_313_TrROS] | < -1 | -0.435 ± 0.064 |
| SAGGSAGMPTTVFLTRPGPRAITMRTDPVSGTVTFTLPSGEVTTTPLSTVKELKVPPDIATVTILASAGGSA [r15_1043_JUSTAS] | -0.609 ± 0.24 | -0.365 ± 0.29 |
| SAGGSAGGSAGGSGPEELAAAARAAHPELGAPVRVEVTYTPEAGEFPVRVFLPEDGAALSAGGSAGGSAGGS [r4_312_JUSTAS] | < -1 | -0.335 ± 0.14 |
| SAGGSAGGSTTMTLTITEYTNDPEGGVKKKKSTTESTVSPEEVEKVAEEVKKKSKNVKVTVNSSAGGSAGGS [r12_342_JUSTAS] | -0.775 ± 0.23 | -0.315 ± 0.29 |
| SAGGSAGGSAGGMIDIPISPEIAENVPPGATVEVEILRDDGRIERLKVKVEDFEPVLPGGSAGGSAGGSAGG [r7_732_TrMRF] | 0.0628 ± 0.26 | 0.308 ± 0.044 |
| SAGGSMLTVDYTVSPDVDLEEALAAVAEEVRAALLAETGGPVAVDVRPVSRPPDGTVRIRVDVALESAGGSA [r2_214_JUSTAS] | 0.525 ± 0.12 | 0.991 ± 0.028 |
| SAGGSAGGSAGGSPFEGPRPVVVKPVSPEILAKTPPEEVKKRLKEELPESVTIVETNPLPSAGGSAGGSAGG [r7_487_JUSTAS] | < -1 | 0.12 ± 0.1 |
| SAGGSAGGSAGGSPSTRTPITVEVKSPTALSRFTYDTGLSPAEIAAPFAAGGYTVTFVSSAGGSAGGSAGGS [r10_540_JUSTAS] | -0.538 ± 0.16 | -0.127 ± 0.22 |
| SPKWKPIAEIPFKNGDPDEFIDKLKDAFPPDPPVQITFNGPDGPPMRIWIDPDEGRIDDIYPGGQIRIIPSA [r9_853_TrROS] | < -1 | -0.986 ± 0.39 |
| SAGGSAGGSAGGSAAEFVAAHPDVEARPVEEGPGSVLVALRPPGGPELLVRVEGAAVTLESAGGSAGGSAGG [r7_26_JUSTAS] | < -1 | -0.459 ± 0.34 |
| SAGGSAGGSAGGSSSSSGTTLVPVTITTETFLNDDTPVTTVTTVLKTLAPDETLADLLASAGGSAGGSAGGS [r4_283_JUSTAS] | -0.519 ± 0.26 | -0.292 ± 0.11 |
| SAGGSAGGSAGDGDTMPFIMIHPDYLTINTWKFNPDGGLEIKSVKTIPLPPPKPSPDNKKSAGGSAGGSAGG [r11_843_TrROS] | -0.48 ± 0.21 | -0.466 ± 0.45 |
| SAGGSAEKKINSPEEIKRFAKELEKKGIKILSIDAVKFPSGPVVEYKMPVLHPENGKLSTLYIKSGSAGGSA [r15_123_TrMRF] | < -1 | -0.352 ± 0.51 |
| SAGGSAGGSAGAVTVTLTGGPTLEIPIPDVPPEELGTPEVVARIEAIAAARGLTIASIRLSAGGSAGGSAGG [r11_467_JUSTAS] | < -1 | -0.14 ± 0.14 |
| SAGGSMKIVKKSEDPSPPVETIEVDPNLDIEKIINELKNQPNVKVDKSTDPNSSKKTITITRPVDGSAGGSA [r2_44_JUSTAS] | -0.224 ± 0.086 | 0.0999 ± 0.058 |
| SAGGSAGGSAAVVVNATPDDGFTIYDPATGERLADAEVTKTNGDSLNLPHPDGRAVAVDPRKSAGGSAGGSA [r18_363_JUSTAS] | -0.373 ± 0.47 | 0.231 ± 0.084 |
